Laboratory results: publication PMC11724288, “Structural and kinetic insights into tRNA promoter engagement by yeast general transcription factor TFIIIC”

Tests used:
[1] = molecular target: T1, TFIIICΔtail (τ138, τ131, τ95Δtail, τ91, τ60, τ55) (Saccharomyces cerevisiae, UniProt P34111;P33339;P32367;Q06339;Q12308;Q12415 1-1160;1-1025;1-593;1-672;1-588;1-435); assay: filter binding; 150 mM KCl, 4 C, apparent Kd, Hill coefficient 1, N=1; Buffer FB: 20 mM HEPES pH 7.5, 150 mM KCl, 2 mM MgCl2, 5 mM DTT; filter binding 1 h at 4 C; EMSA 20 min RT with 1 ug poly-dI/dC, gel at 4 C; footprint 30 min RT, DNase I 28 C; details: protein: recombinant; copies: 1;1;1;1;1;1; blunt
[2] = molecular target: T1, TFIIICΔtail (τ138, τ131, τ95Δtail, τ91, …); assay: EMSA; not significantly changed versus A/B; 100-900 nM protein; Buffer FB: 20 mM HEPES pH 7.5, 150 mM KCl, 2 mM MgCl2, 5 mM DTT; filter binding 1 h at 4 C; EMSA 20 min RT with 1 ug poly-dI/dC, gel at 4 C; footprint 30 min RT, DNase I 28 C; details: protein: recombinant; copies: 1;1;1;1;1;1; label: 32P

Binder | Kd [1] | binding result [2]
85-bp tRNAHis (dsDNA) DNA 1: TGAAAAGTCGCCATCTTAGTATAGTGGTTAGTACACATCGTTGTGGCCGATGAAACCCTGGTTCGATTCTAGGAGATGGCATTTT DNA 2: AAAATGCCATCTCCTAGAATCGAACCAGGGTTTCATCGGCCACAACGATGTGTACTAACCACTATACTAAGATGGCGACTTTTCA | 30 ± 1 nM | 
mA/B (EMSA) (dsDNA) DNA 1: TCCATTGAAAAGTCGCCATCTAACTATTGTCGTTAGTACACATCGTTGTGGCCGATGAAACCCTGGTTCGATTCTAGGAGATGGCATTTT DNA 2: AAAATGCCATCTCCTAGAATCGAACCAGGGTTTCATCGGCCACAACGATGTGTACTAACGACAATAGTTAGATGGCGACTTTTCAATGGA |  | binds
